The record followed here is ChEMBL document CHEMBL2073952, “Na(+)-coupled transport of L-carnitine via high-affinity carnitine transporter OCTN2 and its subcellular localization in kidney” (Biochim Biophys Acta, 2001).

Substrate in this series: C[N+](C)(C)CC(O)CC(=O)[O-]
Put plainly: TP_TRANSPORTER: uptake in membrane vesicle from OCTN2-expressing HEK 293 cell. It counts as functional, cell membranes, HEK293.

B1: Organic cation/carnitine transporter 2 (Homo sapiens) (protein)
chain: MRDYDEVTAFLGEWGPFQRLIFFLLSASIIPNGFTGLSSVFLIATPEHRCRVPDAANLSSAWRNHTVPLRLRDGREVPHSCRRYRLATIANFSALGLEPGRDVDLGQLEQESCLDGWEFSQDVYLSTIVTEWNLVCEDDWKAPLTISLFFVGVLLGSFISGQLSDRFGRKNVLFVTMGMQTGFSFLQIFSKNFEMFVVLFVLVGMGQISNYVAAFVLGTEILGKSVRIIFSTLGVCIFYAFGYMVLPLFAYFIRDWRMLLVALTMPGVLCVALWWFIPESPRWLISQGRFEEAEVIIRKAAKANGIVVPSTIFDPSELQDLSSKKQQSHNILDLLRTWNIRMVTIMSIMLWMTISVGYFGLSLDTPNLHGDIFVNCFLSAMVEVPAYVLAWLLLQYLPRRYSMATALFLGGSVLLFMQLVPPDLYYLATVLVMVGKFGVTAAFSMVYVYTAELYPTVVRNMGVGVSSTASRLGSILSPYFVYLGAYDRFLPYILMGSLTILTAILTLFLPESFGTPLPDTIDQMLRVKGMKHRKTPSHTRMLKDGQERPTILKSTAF
Take B1: the Km worked out at 2.66 µM.
